From patent US9988424 (DUKE UNIVERSITY, dated 2018)
Like-named read-outs stand apart in the source and are kept apart here.

Assays:
Assay in all cases: ELISA, OD405
B.Case A2 V1/V2 Tags [1] = target: T1, B.Case A2 V1/V2 Tags
T1 Env construct: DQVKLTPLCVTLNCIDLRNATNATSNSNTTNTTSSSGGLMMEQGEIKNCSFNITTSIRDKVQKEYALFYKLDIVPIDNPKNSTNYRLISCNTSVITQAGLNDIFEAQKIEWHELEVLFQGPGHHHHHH

AE.con gp140CF [2] = target: T2, AE.con gp140CF
T2 construct: also called AE.con.env03 gp140CF

B.62357 140C [3] = target: T3, B.62357 140C
T3 construct: also called B.62357 gp140C

AE.97CNG2XF gp140CF [4] = target: T4, AE.97CNG2XF gp140CF (HIV-1)
T4 construct: also called E.97CNGX2F gp140CF

B.040 gp140C [5] = target: B.040 gp140C
SIV CPZ US-1 gp140CF [6] = target: T5, SIV CPZ US-1 gp140CF (SIVcpz)
T5 construct: also called US-1 SIVCPZ gp140CF
T5 chain: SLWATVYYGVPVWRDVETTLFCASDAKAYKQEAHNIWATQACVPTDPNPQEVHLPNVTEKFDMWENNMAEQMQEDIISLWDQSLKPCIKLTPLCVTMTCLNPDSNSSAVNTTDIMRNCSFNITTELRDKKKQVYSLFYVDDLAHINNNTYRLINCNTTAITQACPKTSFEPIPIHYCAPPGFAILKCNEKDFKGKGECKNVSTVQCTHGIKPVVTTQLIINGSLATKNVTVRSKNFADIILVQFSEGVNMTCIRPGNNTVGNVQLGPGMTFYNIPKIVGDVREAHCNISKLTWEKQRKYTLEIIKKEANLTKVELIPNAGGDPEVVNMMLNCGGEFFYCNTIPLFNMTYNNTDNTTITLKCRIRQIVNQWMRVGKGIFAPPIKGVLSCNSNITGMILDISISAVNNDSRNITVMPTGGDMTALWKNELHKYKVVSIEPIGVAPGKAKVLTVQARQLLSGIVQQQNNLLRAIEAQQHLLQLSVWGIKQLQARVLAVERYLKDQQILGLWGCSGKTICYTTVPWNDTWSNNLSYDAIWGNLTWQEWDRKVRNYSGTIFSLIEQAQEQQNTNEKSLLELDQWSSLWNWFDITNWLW

B. 684-6 gp140C [7] = target: B. 684-6 gp140C
gp70 C.1086 V1/V2 [8] = target: T6, gp70 C.1086 V1/V2 (HIV-1 V1V2 on murine leukemia virus gp70)
T6 construct: also called C.gp70 1086C V1V2; C.1086gp70V1V2
T6 chain: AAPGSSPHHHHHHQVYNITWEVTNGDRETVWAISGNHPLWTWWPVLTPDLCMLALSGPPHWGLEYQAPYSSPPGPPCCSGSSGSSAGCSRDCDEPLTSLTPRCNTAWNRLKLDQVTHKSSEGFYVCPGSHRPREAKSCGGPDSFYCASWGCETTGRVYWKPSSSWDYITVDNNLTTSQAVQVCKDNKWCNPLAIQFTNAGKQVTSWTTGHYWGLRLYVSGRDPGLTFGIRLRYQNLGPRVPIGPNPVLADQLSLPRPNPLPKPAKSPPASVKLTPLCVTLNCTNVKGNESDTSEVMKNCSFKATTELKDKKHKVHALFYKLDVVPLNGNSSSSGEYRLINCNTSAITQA

D.9009SA V1V2 Tags [9] = target: T7, D.9009SA V1V2 Tags
T7 Env construct: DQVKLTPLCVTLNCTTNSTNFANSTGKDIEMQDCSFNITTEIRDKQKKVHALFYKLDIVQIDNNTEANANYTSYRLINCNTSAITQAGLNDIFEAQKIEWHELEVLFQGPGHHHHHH

B.HXB/BAL gp140CFI [10] = target: T8, B.HXB/BAL gp140CFI (HIV-1, UniProt P04578 33-680)
T8 construct: also called B.HxB/Ba gp140 CFI

A.9004SS V1V2 Tags [11] = target: T9, A.9004SS V1V2 Tags
T9 Env construct: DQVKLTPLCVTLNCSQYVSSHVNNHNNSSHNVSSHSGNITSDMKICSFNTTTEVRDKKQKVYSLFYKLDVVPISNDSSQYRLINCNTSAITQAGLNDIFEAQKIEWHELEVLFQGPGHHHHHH

G.con gp140CF [12] = target: T10, G.con gp140CF
T10 construct: also called G.con.env03 gp140CF

B.9021 gp140C = B.9021 gp140C (HIV-1)
C.1086 gp140 [13] = target: T11, C.1086 gp140
T11 construct: also called C.1086gp140C

B.63521 gp140C [14] = target: B.63521 gp140C
B. 681-7 gp140C [15] = target: B. 681-7 gp140C
B.con gp140CF [16] = target: T12, B.con gp140CF
T12 construct: also called B.con.env03 gp140CF

C.CAP206 gp140CF.12 [17] = target: C.CAP206 gp140CF.12 (HIV-1)
B.63521_V1V2 Tags [18] = target: T13, B.63521_V1V2 Tags
T13 Env construct: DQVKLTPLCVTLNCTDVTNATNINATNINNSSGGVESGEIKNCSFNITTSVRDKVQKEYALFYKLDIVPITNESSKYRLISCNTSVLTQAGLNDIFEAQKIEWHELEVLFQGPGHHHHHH

Con 6 gp120 [19] = target: Con 6 gp120
B.Case A2 V1/V2 Tags [20] = target: T1, B.Case A2 V1/V2 Tags
AE.con gp140CF [21] = target: T2, AE.con gp140CF; remark: listed apart in the source
B.62357 140C [22] = target: T3, B.62357 140C; remark: listed apart in the source
AE.97CNG2XF gp140CF [23] = target: T4, AE.97CNG2XF gp140CF; remark: listed apart in the source
B.040 gp140C [24] = target: B.040 gp140C; remark: listed apart in the source
SIV CPZ US-1 gp140CF [25] = target: T5, SIV CPZ US-1 gp140CF
B. 684-6 gp140C [26] = target: B. 684-6 gp140C; remark: listed apart in the source
gp70 C.1086 V1/V2 [27] = target: T6, gp70 C.1086 V1/V2
D.9009SA V1V2 Tags [28] = target: T7, D.9009SA V1V2 Tags
B.HXB/BAL gp140CFI [29] = target: T8, B.HXB/BAL gp140CFI; remark: listed apart in the source
A.9004SS V1V2 Tags [30] = target: T9, A.9004SS V1V2 Tags
G.con gp140CF [31] = target: T10, G.con gp140CF; remark: listed apart in the source
C.1086 gp140 [32] = target: T11, C.1086 gp140; remark: listed apart in the source
B.63521 gp140C [33] = target: B.63521 gp140C; remark: listed apart in the source
B. 681-7 gp140C [34] = target: B. 681-7 gp140C; remark: listed apart in the source
B.con gp140CF [35] = target: T12, B.con gp140CF; remark: listed apart in the source
C.CAP206 gp140CF.12 [36] = target: C.CAP206 gp140CF.12 (HIV-1); remark: listed apart in the source
B.63521_V1V2 Tags [37] = target: T13, B.63521_V1V2 Tags
Con 6 gp120 [38] = target: Con 6 gp120; remark: listed apart in the source

Measured: binding result

B1: CH01_RUA1 (antibody, V domains shown)
VH: EVQLVESGGGVVRPGGSLRLSCAASGFTFDDYGMSWVRQAPGKGLEWVSGINWNGGSTGYADSVKGRFTISRDNAKNSLYLQMNSLRAEDTALYYCARGTDYTIDDQGIRYQGSGTFWYFDLWGRGTLVTVSS
VL: not shown
notes: also called CH01 UA 1; CH01_UA 1
no binding (tested: 10 ug/ml): B.Case A2 V1/V2 Tags [1] | AE.con gp140CF [2] | B.62357 140C [3] | AE.97CNG2XF gp140CF [4] | B.040 gp140C [5] | SIV CPZ US-1 gp140CF [6] | B. 684-6 gp140C [7] | gp70 C.1086 V1/V2 [8] | D.9009SA V1V2 Tags [9] | B.HXB/BAL gp140CFI [10] | A.9004SS V1V2 Tags [11] | G.con gp140CF [12] | B.9021 gp140C | C.1086 gp140 [13] | B.63521 gp140C [14] | B. 681-7 gp140C [15] | B.con gp140CF [16] | C.CAP206 gp140CF.12 [17] | B.63521_V1V2 Tags [18] | Con 6 gp120 [19]

B2: CH01_RUA2 (antibody, V domains shown)
VH: EVQLVESGGGVVRPGGSLRLSCAASGFTFDDYGMSWVRQAPGKGLEWVSGINWNGGSTGYADSVKGRFTISRDNAKNSLYLQMNSLRAEDTALYYCARGTDYTIDDQGILYQGSGTFWYFDLWGRGTLVTVSS
VL: not shown
notes: also called CH01 UA 2; CH01_UA 2
no binding (tested: 10 ug/ml): B.Case A2 V1/V2 Tags [20] | AE.con gp140CF [21] | B.62357 140C [22] | AE.97CNG2XF gp140CF [23] | B.040 gp140C [24] | SIV CPZ US-1 gp140CF [25] | B. 684-6 gp140C [26] | gp70 C.1086 V1/V2 [27] | D.9009SA V1V2 Tags [28] | B.HXB/BAL gp140CFI [29] | A.9004SS V1V2 Tags [30] | G.con gp140CF [31] | C.1086 gp140 [32] | B.63521 gp140C [33] | B. 681-7 gp140C [34] | B.con gp140CF [35] | C.CAP206 gp140CF.12 [36] | B.63521_V1V2 Tags [37] | Con 6 gp120 [38]
